Results taken from US9428726B2, “Modified host cells with efflux pumps” (priority 2010, dated 2016).
Read-outs that look alike come from different tables or passages of the source.

Assays:
[1] = test system: E. coli DH1 ΔacrAB
Method: In order to screen the efflux pump library against a variety of biofuels we devised a competition-based strategy to select for pumps that improved biofuel tolerance (FIG. 1A). Cells containing plasmids with individual pumps were grown separately and then pooled so that all individual strains were represented equally. This pooled culture was then grown both with and without biofuel, and maintained through serial dilutions every 10-14 hours over a total of 96 hours. At each dilution time point, plasmids from each culture were isolated and a custom microarray was used to quantify the amount of each efflux pump plasmid present in the culture (Methods).
Pooled culture glycerol stocks were used to inoculate M9 minimal medium with 30 μg/ml kanamycin and 10 μM IPTG. The culture was then divided into tubes to a final volume of 5 ml and biofuel was added directly to the tubes. All conditions were prepared in triplicate. Cultures were grown at 37° C. with orbital shaking at 200 rpm for all experiments.
Every 10-14 hours the cultures were diluted 1:100 into 5 ml of fresh M9 minimal medium with kanamycin, IPTG, and biofuel (where applicable). For the time-course assay, cultures were spun down at the completion of a growth cycle and plasmids were isolated. For end point competition assays, plasmid was isolated from the culture after 72 hours of serial dilution.
Custom microarrays (NimbleGen, Roche, USA) were used to measure the relative quantities of the efflux pumps present in the plasmid DNA isolated from the competition cultures. Arrays were designed so that they contained probes for all HAE1 annotated efflux pumps from all sequenced bacterial genomes. 12×135K arrays were used to allow for 12 experiments per slide.
Plasmid DNA was labeled and hybridized following the protocol for NimbleGen Comparative Genomic Hybridization Microarrays with minor modifications (Supporting Methods). Data were normalized using the standard settings for RMA analysis in the NimbleScan software. Probe values were averaged using a custom Matlab script (Mathworks, Inc.). […] For the positive hybridization control, all library plasmids were prepared individually and combined in vitro in equal proportions. For the negative hybridization control, a plasmid with the same vector backbone as those in the library, but no efflux pump, was isolated from DH1 ΔacrAB. Both hybridization controls were labeled and hybridized to the array using the methods described above.
This required the use of a co-solvent in order to accurately pipette small volumes. In both cases dimethylformamide (DMF) was used as the co-solvent. […] Other biofuels were added directly without the use of a co-solvent.

[2] = test system: E. coli DH1 ΔacrAB; assay type: cell-based; details: with 2% α-pinene, grown independently
Method: Individual strains were adapted to M9 minimal medium as described in the Supporting Methods. […] The biofuel being tested was added directly to the cultures and they were grown overnight at 37° C. with orbital shaking. For end point measurements, the optical density was measured after 14 hours of growth in triplicate 5 ml cultures. For growth curve measurements, cultures were grown in triplicate in 24-well plates with 800 μl per well and optical density was measured every 10 minutes with a plate reader (BioTek Synergy 4, USA).

B1: MexB: Pseudomonas aeruginosa PAO1 MexAB-OprM multidrug efflux pump (protein, UniProt P52002 1-1046, looked up)
Multidrug resistance protein …: MSKFFIDRPIFAWVIALVIMLAGGLSILSLPVNQYPAIAPPAIAVQVSYPGASAETVQDTVVQVIEQQMNGIDNLRYISSESNSDGSMTITVTFEQGTDPDIAQVQVQNKLQLATPLLPQEVQRQGIRVTKAVKNFLMVVGVVSTDGSMTKEDLSNYIVSNIQDPLSRTKGVGDFQVFGSQYSMRIWLDPAKLNSYQLTPGDVSSAIQAQNVQISSGQLGGLPAVKGQQLNATIIGKTRLQTAEQFENILLKVNPDGSQVRLKDVADVGLGGQDYSINAQFNGSPASGIAIKLATGANALDTAKAIRQTIANLEPFMPQGMKVVYPYDTTPVVSASIHEVVKTLGEAILLVFLVMYLFLQNFRATLIPTIAVPVVLLGTFGVLAAFGFSINTLTMFGMVLAIGLLVDDAIVVVENVERVMAEEGLSPREAARKSMGQIQGALVGIAMVLSAVFLPMAFFGGSTGVIYRQFSITIVSAMALSVIVALILTPALCATMLKPIEKGDHGEHKGGFFGWFNRMFLSTTHGYERGVASILKHRAPYLLIYVVIVAGMIWMFTRIPTAFLPDEDQGVLFAQVQTPPGSSAERTQVVVDSMREYLLEKESSSVSSVFTVTGFNFAGRGQSSGMAFIMLKPWEERPGGENSVFELAKRAQMHFFSFKDAMVFAFAPPSVLELGNATGFDLFLQDQAGVGHEVLLQARNKFLMLAAQNPALQRVRPNGMSDEPQYKLEIDDEKASALGVSLADINSTVSIAWGSSYVNDFIDRGRVKRVYLQGRPDARMNPDDLSKWYVRNDKGEMVPFNAFATGKWEYGSPKLERYNGVPAMEILGEPAPGLSSGDAMAAVEEIVKQLPKGVGYSWTGLSYEERLSGSQAPALYALSLLVVFLCLAALYESWSIPFSVMLVVPLGVIGALLATSMRGLSNDVFFQVGLLTTIGLSAKNAILIVEFAKELHEQGKGIVEAAIEACRMRLRPIVMTSLAFILGVVPLAISTGAGSGSQHAIGTGVIGGMVTATVLAIFWVPLFYVAVSTLFKDEASKQQASVEKGQ
For B1, the “outcome of efflux pump in competition” value ([1]; 2% geranyl acetate, serial dilution competition) was “survived the competition”, the “outcome of efflux pump in competition” value ([1]; 2% α-pinene, 72 hours serial dilution) was “borderline survivor” and the “growth of individual pump-expressing strain” value [2] was “survives well in α-pinene for the first 10 hours”.
